Measured values as given in article PMC3441139.

Target: N-terminal EGFP fusion to zebrafish P2X4 crystallized construct (EGFP-ΔP2X4-A) (Danio rerio) (UniProt F8W463)
Assay: SEC

stoichiometry N: 3
Substance: N-terminal EGFP fusion to zebrafish P2X4 crystallized construct (EGFP-ΔP2X4-A) (from UniProt F8W463 1-389) (receptor)
